A short description of this series: soluble on expression in E. coli; label from the status in PepcDB or PDB records.
As to “MEECAVSGGFDVSPQELRTFAGKLDVHRSTAEEIAGLVTEADVPERSWGVVGLVVKSECTRMLGDLNELFTALQEGLRSGSEKFTGAAQDYTDQEEAVKELLSGLQVRLDERQGGR”, the “soluble on expression in E. coli” value was “not soluble”.

For the sequence “MEEDKNTLDLHTEAREEDRVAKAVALFKEGYNCSQSVVTAFADLYGFTREQALHMSASFGGGIGRMRETCGAACGMFLLAGLEKCAIEGKDRESKAANYALVQELAEEFKKRNGALRCADLLGLSGKEPVVSTPEARTERYYAKRPCARMVEEAARIWSEHLEKQKK”, the “soluble on expression in E. coli” value is on record as “not soluble”.

As to “MEEEFSMFIMSMSNSMSSLWPAPIEMDSIDEGTENVANIASRWSTCCNIIRLHIEQMIGCEVDVAVAKSTDLGVSMTRGNSDSKLEPISTLLSTISKTIESNGEANAEFAIREIEKMNKSCETEYKIKKFHWFIDVEMFLNIKLALLDREFPPNLTVYVIGELKTLYDDYEAAKEVATNFERSSVNLRFLLCPADLKELNREIIAEKRQKMSEKEIICRFGSDKFKIKLFKKQKIGSHVTLIDSISFLGFLPEIELCRQGFLGSKRSNKLKMDITTDSKLGNKILFSLSQYLLNETKRPQTALFSFSSKPKLRGFCIMVAYESENDETSITLIQLKASLGKCLWKTLKFVNQSGEHSRPLPDDSYEQIAPIERKQLKRRLSRIERIASSVEEKRAQFEAFAREYDALDARDAFMKFTSTWQTDQGLLTAPTPFEDDNNNK”, the “soluble on expression in E. coli” value is listed as “not soluble”.

On to “MEEFTWRVGGPQGGGIETAATLFARAVGKGGWWVATKREYHSNIMGRHSYLDVRLARKPVQAFRERVDFLVALDGETLARHLGEVREGGVVLYDPKVLELTLHKLPMLDHRVAEDLAKRLGQADPSLKEVLQAYAEAGVQPLPYPFEAVADRIGEALGVPSLKARRTLNTIAVAASLHLLSYPLEPLLQALALQFRGEVLELNRKVAEAVYREEAPRLPFRLEVLGPAPGRIYLTGAQAAALGKLAGGLRFQTYYPISPATDESVFLEAHTHLPGADVAVVQTEDEIAAVNMAVGAALAGAKAATATSGPGFSLMAEGLGFAGMIEAPLVVTLYQRGGPSTGLPTRTEQGDLMFAIRGGHGEYPRLVLASGDILDAFLDAQKALAWAWRYQTVVVHLLDKFLASLAQSLPKEALKVLSLDGEKRLSPREGFGPYQRYAPGEDGLSPFIPIGTPGGFYWMTSDEHDPLGHITEDVELRELQMEKRMEKLELARKEIPLEDQYTLFRDGEVLVLGWGTVKGTLLEALDHLEGVGYLHLRLLWPFPRIAPLLEGKTLVTVEHNYSGQLADLVQQETLKRVHHRVVKYNGRPITLEEAVEALKAVREGRAPERLVLRKGV”, for which the “soluble on expression in E. coli” value is “soluble”.

Turning to “MEEGSAIDYQRVPPLSGTHYASTVSAGFYEATPLLGSLVHTLEHGAVIVYYDPDEISPEARQSLREFSSVHTGTWRSVVAVPNPNDDPRATYVVTAWQHELTIDSYDAETVHAFLSEYLGRGPENPVRLEHHHHHH”, the “soluble on expression in E. coli” value was “soluble”.

With “MEEKDWEGSPLSENEAGLLCYDDEEYQFGGPAPKLQFRYLSEIGELQLLGDEDDVVISLKDLYGEIAEGKYGCCWENYEVYRYLKGLGYILGRHGVPWTTKYAVNTTPSDEDESLCAAEFFQDRDSVTKLLSDMHICDARPVFDVYLPNSQFKKSSPGEPSFVTCFSG”, the “soluble on expression in E. coli” value was “soluble”.

Take “MEELQYFPYERLRPNQREFIEIVKEAVKRGENLIVEAPTGFGKTISVLAGVLPYAISLGYKVVYLARTHKQMDRVIEELKKIRERNEVSGIEFRSRRDLCLHSYIQTFVQDAYTSMIVCKTLRKLGKCPFFENIKEKRDRVEEIVRFFLNSPPFPHEVLEYSELLELCPYEITKKIGEKANVIVASYLYMISPPIRQAFLENLGVDYSDLIVIFDEAHNLPDQAISALSDRLSIRSIERAIKEAEEYGEKDIENFLSILLRGLEILYKEKLENYESEEVPIRPEEVFLHVASVLGWSGREIGMMLEDMIEVGDAIREDRIERNLPPRSYVGRVGEFLWNWLALREREDYLHLFTKERGLALELVALDPSVALEFLEEVHSAIFMSGTLSPLEAFRDIIGVKAELKKFPRMIKRENAIVLVARDVSTRGIERSPSLYRRISEYIFEAVRNTPKNVGVFTASYEVLEGILSTNVHIKIEEEIGKKVFIEKRDAPSRENDEMIRAFKEESKGKGAVLFGVMGGRNSEGQDYSGDEMNGVVLVGIPYARPTPRVQAQIRYFEKKFPGKGRYYGYVLPAHRKLTQAAGRVHRSEEEKGSIVILDYRVLWKSVKKDLPDWMVETMIPVTLPHYENKTLEHHHHHH”: the “soluble on expression in E. coli” value is “not soluble”.

The record behind these values is the DeepSol protein solubility set.
